Data set [1] deals with PDGFRalpha extracellular domain (EC-PDGFRα) (Homo sapiens, UniProt P16234 P16234:24-528). Nature of the data set: filter; no saturable binding detectable up to 1000 nM. The following applies: tags: soluble, R&D Systems; label: 5'-32P.
Data set [2] concerns the target PDGFRbeta extracellular domain (EC-PDGFRβ) (Homo sapiens, UniProt P09619 P09619:33-532). Description: filter; 1 nM radiolabeled RNA, 1-1000 nM protein; unrelated aptamer background subtracted. The note with it: tags: soluble, R&D Systems; label: 5'-32P.

Sequence of PDGFRbeta extracellular domain (EC-PDGFRβ) (P09619 33-532, one chain of several): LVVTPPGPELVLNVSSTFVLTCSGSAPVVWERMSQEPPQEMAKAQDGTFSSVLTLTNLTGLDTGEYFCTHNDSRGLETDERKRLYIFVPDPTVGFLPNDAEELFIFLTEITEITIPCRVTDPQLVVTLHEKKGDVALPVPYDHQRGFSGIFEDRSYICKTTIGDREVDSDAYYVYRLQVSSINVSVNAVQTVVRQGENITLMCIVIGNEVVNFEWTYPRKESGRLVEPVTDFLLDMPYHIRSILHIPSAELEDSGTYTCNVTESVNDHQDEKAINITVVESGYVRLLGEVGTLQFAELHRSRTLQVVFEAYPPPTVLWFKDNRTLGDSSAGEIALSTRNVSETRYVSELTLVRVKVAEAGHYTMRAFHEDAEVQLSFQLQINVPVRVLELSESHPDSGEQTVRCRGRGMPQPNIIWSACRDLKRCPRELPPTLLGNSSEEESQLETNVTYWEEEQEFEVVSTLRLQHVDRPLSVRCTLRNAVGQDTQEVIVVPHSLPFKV
Sequence of PDGFRalpha extracellular domain (EC-PDGFRα) (P16234 24-528, one chain of several): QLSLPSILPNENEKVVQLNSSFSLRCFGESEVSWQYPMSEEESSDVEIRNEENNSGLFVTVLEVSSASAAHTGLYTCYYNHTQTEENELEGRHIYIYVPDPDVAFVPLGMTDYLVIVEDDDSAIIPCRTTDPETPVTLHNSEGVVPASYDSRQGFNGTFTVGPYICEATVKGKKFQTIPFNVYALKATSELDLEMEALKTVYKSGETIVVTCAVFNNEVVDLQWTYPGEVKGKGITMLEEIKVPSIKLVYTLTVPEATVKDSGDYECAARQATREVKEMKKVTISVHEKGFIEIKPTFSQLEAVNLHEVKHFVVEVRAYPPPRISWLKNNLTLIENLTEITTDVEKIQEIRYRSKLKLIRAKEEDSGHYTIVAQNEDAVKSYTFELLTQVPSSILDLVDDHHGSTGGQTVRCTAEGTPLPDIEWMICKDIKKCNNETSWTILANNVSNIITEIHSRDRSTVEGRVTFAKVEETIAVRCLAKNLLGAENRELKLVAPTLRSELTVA

One may read the Kd as the free concentration of one partner at which half of the binding sites on the other are occupied at equilibrium, for simple one-to-one binding. For UGUCGUGGGGCAUCGAGUAAAUGCAAUUCGACA (ssRNA, 2'-F all pyrimidines) [Gint4.T], the binding result in data set [1] is reported as “no binding”. In addition, the Kd in data set [2] amounted to 9.6 nM.

B1: Gint4 (ssRNA)
RNA: GGGAGACAAGAAUAAACGCUCAAUCAUAAGAGGUAUCACAUUGUCGUGGGGCAUCGAGUAAAUGCAAUUCGACAGGAGGCUCACAACAGGC
modifications: 2'-F all pyrimidines
B1 displayed an equilibrium dissociation constant (Kd) in data set [2] of 10.4 nM.

The values are drawn from patent US20150275215, “NEUTRALIZING RNA APTAMERS AGAINST PDGFBETA AND USES THEREOF IN THE THERAPY AND DIAGNOSIS OF HYPERPROLIFERATIVE DISEASES” (CONSIGLIO NAZIONALE DELLE RICERCHE, published 2015).
